Assay: soluble on expression in E. coli; label from the status in PepcDB or PDB records

Sequence | soluble on expression in E. coli
MGSDKIHHHHHHMSSLATLAQPLADGTFQCLACQWRCTLAPGEIGRCHMRIGREEGIELINHGMISGAAIGPVEDHRLWHFFPDTTVLAIGGWGYALPIDQQRGPYGTLPTEPAKQRRLEPQRAADFALERLCRGVVWAFGEPAVNFEYVLALLQLSRAASRYTAIVTSGMLSLEALNELGPYLNGISLDLRGFSDNAYQRLGGISDWRHILRFAEEAQQRWKCHIEITTRIHHGVNDHPDELRDLVEWIKKTLGEETPWHVLPGDAGSETAAATKQARRIGHEGGLQFIYGHEPNQPTRCPSCHATLINRQHGVSRRVGLDGNRCSNCGYATNLYLSIFKVHRT | not soluble
MPALDLIRPSVTAMRVIASVNAEFARELKLPPHIRSLGLISADSDDVTYIAADEATKQAMVEVVYGRSLYAGAAHGPSPTAGEVLIMLGGPNPAEVRAGLDAMVANIENGAAFQWANDAENTAFLAHVVSRTGSYLSSTAGITLGDPMAYLVAPPLEATYGIDAALKSADVQLVTYVPPPSETNYSAAFLTGSQAACKAACNAFTDAVLEIARNPIQRA | not soluble
MGSDKIHHHHHHMETQDYAFQPGLTVGELLKSSQKDWQAAINHRFVKELFAGTIENKVLKDYLIQDYHFFDAFLSMLGACVAHADKLESKLRFAKQLGFLEADEDGYFQKAFKELKVAENDYLEVTLHPVTKAFQDLMYSAVASSDYAHLLVMLVIAEGLYLDWGSKDLALPEVYIHSEWINLHRGPFFAEWVQFLVDELNRVGKNREDLTELQQRWNQAVALELAFFDIGYDV | soluble
MSLGVLFSPPPASAYDGVEFLEFAVDEAVGARLGNWLKRLGFAEAGKHRSKEVQLLRQGDINIVLNAEPYSFGHNFFEAHGPSLCATALRVKDQQAALKRATAFRGQPFRGLVGPNECEVPAVRAPDGSLLYLVEQGTAGHTLYDTDFSLDNNATATGGLRRIDHMALALPAESLDSWVLFYKSLFDFAADDEVVLPDPYGLVKSRALRSQCGTLRLPLNISENRNTAIAHALSSYRGSGVHHIAFDCDDIFREVARAKLAGVPLLEIPLNYYDDLAARFDFDDEFLSELAYYNVLYDRDAQGGELFHVYTEPFEERFFFEIIQRKAGYAGYGAANVAVRLAAMAKARSGAARKEGHHHHHH | soluble
MGSDKIHHHHHHMSTEHLLLVSLLKKLKDDALVLPTLPEVAMRVQEVVGRSDASLKQVAEVIGQDAAISARIIKVANSALYSRGVPAESINSAVSRIGLIQIKSIATSVAMEQLFISTNEMVWEVMDEVWRTSIDVTAAACAMLQMYNKRHSTSRLNFDTLTLAGLVHNIGALPVLTEAEAQPHLFTSIDQLRALVRKMQGPLGRAVLKSWDFSTEVMEVVERWADLPYLPDHVTYLDFIRAAAFYTGELRAGTELEQRLGVFVARGLPVTTDDLASDEFMEKFHSIRESYQ | not soluble
LHRILKVVFPKRKIVLWVIGGDLHLEVEKGRYRVDVLKSLQYLLVEGQAMKDALCGQGVENVKVMPNFKDISLFSPLHCHTPYTPSKVLRLVFFSRIMPDKGCDLILDLAHKLNERGYKDKFVIDFYGPIAPDYSKRFSSILDTLPNVHYQGTLD | not soluble
MSLSILNSNAALRGLLDQHLADLSREEGLAPETIRDAIERGTMVLLGNPSHPSLRPILVGQPARVKVNANIGTSPMRNHPECEMQKVDAAVEAGADTIMDLSIAGDLDAIRREMLARCPLPLGTVPLYSVAQKYIECGKDPALIDPEEIFAEIEKQAQQGVDFMTVHCGLTRRGAEWAAKGDRLLGIVSRGGSILARWMLRHDRENPLLTGYDRILDIARKYNVTLSLGDGLRPGAGADAGDAAQWEEVMVLGQLAKRGLEAGVQCMIEGPGHVPMNEVEAQIVGIKKLTHGAPLYVLGPLVIDSCPGYDHIAGAIGGALAVRSGVDFLCYLTPAEHLTLPTREDVRAGVIASRIAAQAGEVALGRPHALARELGMGKARKALDWPGMERHALDAAMVDERRGEHRNEEECAMCGKFCAVKMLRDDPQGAFEGHHHHHH | soluble
MKVKEHCGIVGVYADNSPMISYESLKLLQHRGQESAGITYRKDGSLVTMKGLGLVEEALDPRLLPNAKLSIGHVRYSTTGKGSLDEAQPLSNGKIAIAFNGTITNYFKFGTSTDTEFILKVLSEAPNIKEGIRRLVDLADGAYSLVVLTNEGELIGFRDPKGFRPLVLGKINNGYIIASEDSVIRQLGGKPLRDVKPGEMIYIKDGEIESEVISRDRVSFCSFEYIYFARPDSIIDGVSVYNSRIKLGEILAENHGVDADVAIPVPESSIPIAIGFSRKSKIPMEYGLIRTLVAKRSFIMPTQDKRNAVLEEKFGIVKSVVENKKVVVIDDSIVRGNTMRKIVRMIRDNGAKEVHVRIGSPKVKYPCYMGIDFPLSKELIASEKDEKEIAKYIGADSVEFLTVEEMIKAIGRPDLCHACFSGVYPLKFSYNLQVLESIFKKVS | soluble
MKLPPSLICPPLLALYRVWCRTLNFEEEGRAAVDVLWQERKPMVFALWHDELFPLMHVRRELEIVTVVSQSRDGEYLARVLQGLGLHTARGSSSRGGVKALLQAARMMQKQNLCGCVTVDGPRGPRHRVKEGAIFLAHRAKAPIVPIRLFMSRTKVFAKAWDKFQLPLPGSDVRVVFGAPYHTAENALESPRLEDERQRLEAKLEALALEHHHHHH | soluble
MSLKRLACYIRVSSNKDDQQSSLIQQETLLREKFKQEDLIIYSDTGTGVSFNREGFKRLMYDAGLNICKLNDGRITFEADNIRKPIFDEIVVINTSRFSRNIAIIDILRVLWDYKKINVHFLDNCKNSNNPNDMTVLKMFFSMAENESMETSNRTKRGNEISILDNTIRNNSIFGWDFDREKNYLKINKKEAEIVRFIFKTALTNGLKMTAKIVNEKGYRTKKNRLWSSSTIKTLIVNPKYKGYNVRNKYSNENMFTGVKSKYVKKENWIIQKNNRIEPIVSEELWEEVQRALESRCLHGNREGHHHHHH | soluble
MGSDKIHHHHHHMPSIFEKYHLKQVINTSGRMTALGVSTPRPEVVEAAMAGMNQYFEMKDLVNKTGEYIAKLLDVEGATVVSCASAGIAQSVAAVLVKDSDWLLENLHVTPIENNEIVLPKGHNVNFGAPVGTMVALGGGKLVEAGYANECSAQQLAAAITPRTAAILYIKSHHCVQKSMLNVAQAAEVARQHNVPLIVDAAAEEDLQCYYRMGADLVIYSGAKAIEGPTSGLVIGKTQYVEWVKRQSMGIGRAMKVGKEGILGLTCAIEHYLTASKESGQQMVAKMTPFIEQLNTLNGVTARVVWDSAGRDIARAEIKFDEATTGVKTGDLVNALKQGEYAIYFRGYKANEGIIEADVRSVNAQQLEVVARRIAEVLNKEKQA | not soluble
GSHMEEAKGPVKHVLLASFKDGVSPEKIEELIKGYANLVNLIEPMKAFHWGKDVSIENLHQGYTHIFESTFESKEAVAEYIAHPAHVEFATIFLGSLDKVLVIDYKPTSVSL | soluble
GHMSETYDFLFKFLVIGNAGTGKSCLLHQFIEKKFKDDSNHTIGVEFGSKIINVGGKYVKLQIWDTAGQERFRSVTRSYYRGAAGALLVYDITSRETYNALTNWLTDARMLASQNIVIILCGNKKDLDADREVTFLEASRFAQENELMFLETSALTGENVEEAFVQCARKILNKIESGELDPERMG | soluble
PAMADTIKLRIIETTDIHTNVMDYDYYKDQPSQQIGLSRAATLVKQAKSEVENSVLVDNGDLIQGSPMGDYMAAKGIQTGEVHPVYKAMNQLHYDVGNIGNHEFNYGLDFLQNTLAGANFPYINANVFDKKTGEHYFQPYLIKTHSFKDTDGEVHQVKVGYIGFVPPQIMVWDKKNLEGNVVAKDIKETAEKLIPQMKKEGADIIVAIPHSGVSTDPYKLGAENSVYYLTQVKGIDAIAFGHSHAVFPGKGFENLQGVDNNKGTINGVTAVMPGRWGSHVGVMDLVIEQKDGQWQVVEGQSEARPIFDKAAKKSLAEADQCIIRALEDDHKGTREFVNQ | not soluble
MLLFSRQGKLRLQKWYMAYPDKVKKKITRELVTTILARKPKMCSFLEWKDCKIVYKRYASLYFCCAIEQNDNELLTLEIIHRYVELLDKYFGSVCELDIIFNFEKAYFILDELLIGGEIQETSKKNVLKAIASQDLLQEDETPQSFFDDHGLG | soluble
GVTKKLKISRTATCKGCKGLGGNEGSAKECSDCRGRGIKVRVIRMGPMVQQMQSHCDSCNGEGSTFLEKDRCKKCNGKKQVKEDEI | not soluble
MTFEMLYSKIHRATITDANLNYIG | soluble
MGSDKIHHHHHHMHLTQSTISQQLARLEESVGHSLIDRTARPLQLTASGEYLIGYAQRILTLQQEAEAVLKDPAGSIPIRIGLPEDMMSTAMAEVFGLFAQEHRTIRLDVTSGLSRNLTERYRNGELDIVIVKESAASADCYASFPEEMAWFESENAITPLSEPIRLVTFPQGGLYRDEMFETLERERRRWYIAFTGSSLESVLVSVETGLGISLLPVSTTKGRRVRRYKSLGEASPMVVSIYTWEKAGLISQLVDHMTTVLHDRFQSGS | not soluble
MTKIFIRDDNGGTEMSQDPFQEREAEKYANPIPSREFILEHLTKREKPASRDELAVELHIEGEEQLEGLRRRLRAMERDGQLVFTRRQCYALPERLDLVKGTVIGHRDGYGFLRVEGRKDDLYLSSEQMKTCIHGDQVLAQPLGADRKGRREARIVRVLVPKTSQIVGRYFTEAGVGFVVPDDSRLSFDILIPPDQIMGARMGFVVVVELTQRPTRRTKAVGKIVEVLGDNMGTGMAVDIALRTHEIPYIWPQAVEQQVAGLKEEVPEEAKAGRVDLRDLPLVTIDGEDARDFDDAVYCEKKRGGGWRLWVAIADVSYYVRPSTPLDREARNRGTSVYFPSQVIPMLPEVLSNGLCSLNPQVDRLCMVCEMTVSSKGRLTGYKFYEAVMSSHARLTYTKVWHILQGDQDLREQYAPLVKHLEELHNLYKVLDKAREERGGISFESEEAKFIFNAERRIERIEQTQRNDAHKLIEECMILANISAARFVEKAKEPALFRIHDKPSTEAITSFRSVLAELGLELPGGNKPEPRDYAELLESVADRPDAEMLQTMLLRSMKQAIYDPENRGHFGLALQSYAHFTSPIRRYPDLTLHRAIKYLLAKEQGHQGNTTETGGYHYSMEEMLQLGQHCSMAERRADEATRDVADWLKCDFMLDQVGNVFKGVISSVTGFGFFVRLDDLFIDGLVHVSSLDNDYYRFDQVGQRLMGESSGQTYRLGDRVEVRVEAVNMDERKIDFSLISSERAPRNVGKTAREKAKKGDAGKKGGKRRQVGKKVNFEPDSAFRGEKKTKPKAAKKDARKAKKPSAKTQKIAAATKAKRAAKKKVAELEHHHHHH | soluble
MGSDKIHHHHHHMIIFFQLSSPYLLDIYHLDILYGMSFIKAIIKKMSGGVLLKIIDTVPFFLKYYESSLAFLKHYYSQYPKIFNEYFAYHCKDTEERHDQSLAKYPESLLAIQQVRRAIIPIIEEVVEEYGRLYQVTFPTEVNLIVGGYGSNAYTHRQIIPDVTFALERLSPKVEHLQAIVAHDFGHVAHNILSSEAGMDWGKVQWDSPLIWLYQEGAAIHFSRQIAPQLPPAMYFSFDAEGEEWLRFFKENTHAVKSAFAHDYVQETSQSMFQEWFSINGGKRFGYNRLGYLVGDLLFQHFTKTKGERNAITAWKEGRFREEVERWFKR | not soluble
MGSDKIHHHHHHLDFRLLRYFVAVAEELHLARAAERLGIEQSPVSRAMRDLESQLGVQLFDRSTRLTRLTWAGQVFLGECRRVMATVEQAVKSAKAAAQGYQGHLRIAICDSLAQPRIATLLARSREEEPELEIRVFELPFAQQLKMLHDDLLDIGFALSNAVHDGLVAEPVWTDPLSVIVPARHPLLAHVQVPLPEALKFPLVLCHPESGSGCRHQIQALLQDAGTPLKLVDEVTSLGVMLTLVGAGYGIGFAIASQVQTLQRPDISIRPLAGTPPMLSTYLLRRRGEPSEPMRRFIERVKDGAAPVDDEPVL | not soluble

— the DeepSol protein solubility set
